Measurements as given in article doi:10.1101/2025.01.07.631702 (bioRxiv, 2025).

B1: heavy-chain (HC-) FSAP (residues 24-291) (domain or fragment)
chain: FSLMSLLESLDPDWTPDQYDYSYEDYNQEENTSSTLTHAENPDWYYTEDQADPCQPNPCEHGGDCLVHGSTFTCSCLAPFSGNKCQKVQNTCKDNPCGRGQCLITQSPPYYRCVCKHPYTGPSCSQVVPVCRPNPCQNGATCSRHKRRSKFTCACPDQFKGKFCEIGSDDCYVGDGYSYRGKMNRTVNQHACLYWNSHLLLQENYNMFMEDAETHGIGEHNFCRNPDADEKPWCFIKVTNDKVKWEYCDVSACSAQDVAYPEESPTEP
modifications: labelled with the Monolith protein labelling kit RED-NHS (in the MST only)

Legend:
[1] = target: heavy-chain (HC-) FSAP (residues 24-291) (human) (UniProt Q14520); assay: MST
[2] = target: the molecule itself; assay: dynamic light scattering

Row | Molecule | Kd [1] | binding result [2]
1 | Histone-H1 (natural protein) | 2000 nM | 
2 | B1 |  | binds
